# Measured values reported in article PMC4139204, “Insight into the Architecture of the NuRD Complex” (The Journal of Biological Chemistry, 2014).
# Key:
# Nurf55 MUT [1] = assay: Protein A affinity purification with mutant Nurf55 bait, mass spectrometry; assay type: cell-based, D. melanogaster (Dmel-2 cells); details: for Number of peptides identified, Nurf55 MUT: IgG beads, Dmel-2 cells, mutant E361Q, D362N, E364Q, D365N, L35Y
# Excerpt: (§1) Full-length Nurf55 (also known as p55 and CAF1) is the D. melanogaster homolog of RbAp46/p48. It was PCR-amplified and cloned into the pDONR221 vector via the BP (recombination and insertion of the att B sequence into the att P recombination site) reaction using standard Gateway Technology (Invitrogen) protocols. Five residues in this plasmid were mutated (L35Y, E361Q, D362N, E364Q, D365N) to create pDONR-Nurf55mut using the QuikChange Lightning Site-directed Mutagenesis kit (Agilent Technologies). The resulting wild-type and mutant clones were verified by sequencing. Primer sequences for the constructs are available on request. The Nurf55 genes were then transferred into destination vectors for the inducible expression of protein A- or GFP-tagged fusion proteins by the LR (insertion of sequences containing att L sites into destination att R sites) reaction according to the manufacturer's instructions.
# (§2) D. melanogaster Dmel-2 cell lines stably expressing either tagged wild-type or mutant Nurf55 (containing the L35Y, E361Q, D362N, E364Q, and D365N mutations) were established. Affinity purification of protein A- and GFP-tagged bait and interacting proteins followed by mass spectrometry identification was carried out as previously reported ([39][–][41]).
# (§3) Cell lines stably expressing protein A-tagged fusion proteins of either wild-type Nurf55 or the mutant (Nurf55mut) were generated. RbAp46 shares >90 and 85% sequence identity with RbAp48 and NuRF55, respectively. […] Cellular proteins that interact with protein A-tagged Nurf55/Nurf55mut were then isolated by affinity purification on IgG beads and identified by mass spectrometry as described previously ([39], [40]).
# Nurf55 MUT [2] = assay: GFP affinity purification with mutant Nurf55 bait, mass spectrometry; assay type: cell-based, D. melanogaster (Dmel-2 cells); details: anti-GFP nanobody beads, Dmel-2 cells, triplicate, lowest number of unique peptides listed, mutant E361Q, D362N, E364Q, D365N, L35Y
# Excerpt: as §1, §2
# Nurf55 WT [3] = assay: Protein A affinity purification with wild-type Nurf55 bait, mass spectrometry; assay type: cell-based, D. melanogaster (Dmel-2 cells); details: for Number of peptides identified, Nurf55 WT: IgG beads, Dmel-2 cells; for interaction with Nurf55: wild-type Nurf55
# Excerpt: as §1, §2, §3
# Nurf55 WT [4] = assay: GFP affinity purification with wild-type Nurf55 bait, mass spectrometry; assay type: cell-based, D. melanogaster (Dmel-2 cells); details: anti-GFP nanobody beads, Dmel-2 cells, triplicate, lowest number of unique peptides listed
# Excerpt: as §1, §2
# [5] = tested on: RbAp48 binding to GST-H4-(1–48); assay: Competition pulldown: GST-H4-(1–48) pulls down RbAp48 in absence and presence of full-length MTA1; set-up: species or system human; details: GST-H4-(1–48) on glutathione beads, in vitro translated 35S-labeled RbAp48, absence and presence of full-length MTA1
# Protocol: The structural data provide clear evidence that histone H4 and MTA1 bind mutually exclusively to RbAp48. […] Competition-binding experiments were performed to assess whether full-length MTA1 might inhibit the interaction of RbAp48 with H3 or FOG1 peptides and to confirm that H4 and MTA1 bind mutually exclusively to RbAp48. GST-H4-(1–48) was expressed in bacteria, immobilized onto glutathione beads, and used to pull down RbAp48 in the absence and presence of full-length MTA1 (Fig. 7A). In a complementary experiment (Fig. 7B), in vitro translated FLAG-RbAp48 was immobilized on anti-FLAG beads and used to pull down MTA1 in the absence and presence of histone H4-(1–48).
# FIGURE 7. […] A, pulldown showing the binding of in vitro translated ^35S-labeled RbAp48 to GST-histone H4-(1–48) (immobilized on glutathione beads) in the absence and presence of in vitro translated MTA1. B, pulldown showing the binding of in vitro translated ^35S-labeled MTA1 to FLAG-RbAp48 (immobilized on anti-FLAG beads) in the absence and presence of histone H4-(1–48). C, pulldown assays showing the effect of adding increasing amounts of FOG1-(1–15) peptide to a complex formed between in vitro translated ^35S-labeled FLAG-RbAp48 (immobilized on anti-FLAG beads) and in vitro translated ^35S-labeled full-length MTA1 or MTA1-(530–715). […]
Molecule,"Number of peptides identified, Nurf55 MUT (Nurf55 MUT [1])",interaction with Nurf55mut (Nurf55 MUT [1]),"Number of peptides identified, Nurf55 MUT (Nurf55 MUT [2])","Number of peptides identified, Nurf55 WT (Nurf55 WT [3])",interaction with Nurf55 (Nurf55 WT [3]),"Number of peptides identified, Nurf55 WT (Nurf55 WT [4])",competition of MTA1 with histone H4 for RbAp48 [5]
"Rpd3: known subunit of the D. melanogaster NuRD complex, Rpd3 (dHDAC) (protein) MQSHSKKRVCYYYDSDIGNYYYGQGHPMKPHRIRMTHNLLLNYGLYRKMEIYRPHKATADEMTKFHSDEYVRFLRSIRPDNMSEYNKQMQRFNVGEDCPVFDGLYEFCQLSAGGSVAAAVKLNKQASEICINWGGGLHHAKKSEASGFCYVNDIVLGILELLKYHQRVLYIDIDVHHGDGVEEAFYTTDRVMTVSFHKYGEYFPGTGDLRDIGAGKGKYYAVNIPLRDGMDDDAYESIFVPIISKVMETFQPAAVVLQCGADSLTGDRLGCFNLTVKGHGKCVEFVKKYNLPFLMVGGGGYTIRNVSRCWTYETSVALAVEIANELPYNDYFEYFGPDFKLHISPSNMTNQNTSEYLEKIKNRLFENLRMLPHAPGVQIQAIPEDAINDESDDEDKVDKDDRLPQSDKDKRIVPENEYSDSEDEGEGGRRDNRSYKGQRKRPRLDKDTNSNKASSETSSEIKDEKEKGDGADGEESTASNTNSNNNSNNKSDNDAGATANAGSGSGSGSGAGAKGAKENNI",0,not observed,9,8,pulled down by Nurf55,36,
MTA-like: known subunit of the D. melanogaster NuRD complex (protein) MATNMYRVGDYVYVETTPNSPYLIRRIEELNKNQTGNVEAKVMCFYRRRDLPNPLVQLADKHQLATAEDSPLATKLKKTWLRTPVSEEQAAQAVLDPSIAALDEERTSPTQTSGGGGSATGNSGSNSSGTSNNNSSSTAIGGGAGGSGGAGGDAEKGEALTSKQRYQIKHRELFLSRQVESIPATQIRGKCSVTLLNETESLQSYLNKDDTFFYCLVFDPNQKTLLADKGEIRVGSRYQCDIPAKLKDTATDDRKLEELESLVWTPEHSLTDRKIDQFLVVSRSIGTFARALDCSSSVKQPSLHMSAAAASRDITLFHAMNILHKHEYSIEESMSSLVPSTGPVLCRDEIEDWSASEANLFEEALEKYGKDFNDIRQDFLPWKTLKQIIEYYYMWKTTDRYVQQKRVKAVEAELKLKQVYIPQYNNNGKGNGTSTKAGGGIYNGTTNGSTDLSSNGKPCESCGTTKSSQWNSVSSGHSTSRLCLSCWEYWRRYGSMKSATKGDAGEGDAKKKSSSAASTPTATLAGLATTPTAVVDLNDDEKISDLTNRQLHRCSIVNCGKEFKLKTHLARHYAQAHGIAISSGSPRPIMKTRTAFYLHTNPMTRVARAICRSIVKPKKAARQSAYAINAMLVKQEFTNRISGKSQAEIKKLLLLKPKDRGSVTKIANRLGAPGSGPHEWLVLTPKDKMPLPAVVSFPKPPKAPDGSLVYDRVPNKSPDVVAVPADKELTIIPTQATSTIRKRAHEDQQLNGTEVTIVPSGPPAKRPNKDPMPSHCPSPEQFAAMMAASGQPLSRHHLNGKQKIAQMARGGNGRKQVISWMDAPDDVYFRANDTHKKTRKILSAVDLRRAARKPWRTLPIKPAAPEPSSRPIESQIVILD,0,not observed,6,57,pulled down by Nurf55,79,
"full-length MTA1: in vitro translated full-length MTA1; human MTA1 Uniprot Q13330 (protein, UniProt Q13330 1-715, looked up, full-length, in vitro translated full-length MTA1; human MTA1 Uniprot Q13330) MAANMYRVGDYVYFENSSSNPYLIRRIEELNKTANGNVEAKVVCFYRRRDISSTLIALADKHATLSVCYKAGPGADNGEEGEIEEEMENPEMVDLPEKLKHQLRHRELFLSRQLESLPATHIRGKCSVTLLNETESLKSYLEREDFFFYSLVYDPQQKTLLADKGEIRVGNRYQADITDLLKEGEEDGRDQSRLETQVWEAHNPLTDKQIDQFLVVARSVGTFARALDCSSSVRQPSLHMSAAAASRDITLFHAMDTLHKNIYDISKAISALVPQGGPVLCRDEMEEWSASEANLFEEALEKYGKDFTDIQQDFLPWKSLTSIIEYYYMWKTTDRYVQQKRLKAAEAESKLKQVYIPNYNKPNPNQISVNNVKAGVVNGTGAPGQSPGAGRACESCYTTQSYQWYSWGPPNMQCRLCASCWTYWKKYGGLKMPTRLDGERPGPNRSNMSPHGLPARSSGSPKFAMKTRQAFYLHTTKLTRIARRLCREILRPWHAARHPYLPINSAAIKAECTARLPEASQSPLVLKQAVRKPLEAVLRYLETHPRPPKPDPVKSVSSVLSSLTPAKVAPVINNGSPTILGKRSYEQHNGVDGNMKKRLLMPSRGLANHGQARHMGPSRNLLLNGKSYPTKVRLIRGGSLPPVKRRRMNWIDAPDDVFYMATEETRKIRKLLSSSETKRAARRPYKPIALRQSQALPPRPPPPAPVNDEPIVIED",,,,,,,compete for the same binding surface on RbAp48
